Data as given in paper PMC4532887, “Structural and mechanistic insights into phospholipid transfer by Ups1–Mdm35 in mitochondria” (Nature Communications, 2015).
One block for each binder: values may come before it.

What was measured:
Conditions in all cases: both partners purified
[1] = target: T1, full-length His6-Ups1 R25E (S. cerevisiae, UniProt Q05776 1-175, R25E); assay: SEC; 10 μM full-length Ups1–Mdm35 complex (WT or mutant Ups1) after incubation with NBD-PA donor liposomes and centrifugation; supernatant on Superdex 200 10/300 GL; 20 mM Tris-HCl pH 7.5, 150 mM NaCl; absorbance at 280 and 460 nm
T1 construct: Ups1, Saccharomyces cerevisiae, full length (175 amino acids); source: E. coli SHuffle T7, coexpressed with Mdm35, purified (Ni-NTA, Superdex 200)
T1 sequence (looked up): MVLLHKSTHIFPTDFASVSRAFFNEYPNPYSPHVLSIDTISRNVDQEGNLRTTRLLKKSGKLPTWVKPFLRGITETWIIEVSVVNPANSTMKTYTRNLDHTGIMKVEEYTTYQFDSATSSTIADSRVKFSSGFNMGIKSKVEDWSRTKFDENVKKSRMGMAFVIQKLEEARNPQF

[2] = target: T2, full-length His6-Ups1 K61E/K155E (S. cerevisiae, UniProt Q05776 1-175, K61E | K155E); assay: as above
T2 construct: Ups1, Saccharomyces cerevisiae, full length (175 amino acids); source: E. coli SHuffle T7, coexpressed with Mdm35, purified (Ni-NTA, Superdex 200)
T2 sequence (looked up): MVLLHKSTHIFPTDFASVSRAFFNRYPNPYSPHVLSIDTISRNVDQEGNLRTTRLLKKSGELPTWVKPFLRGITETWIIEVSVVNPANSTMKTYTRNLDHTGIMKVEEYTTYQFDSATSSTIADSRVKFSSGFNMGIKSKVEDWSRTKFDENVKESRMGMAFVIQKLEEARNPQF

[3] = target: T3, full-length His6-Ups1 ΔLid (lacking the Ω1 loop, residues 62–71) (S. cerevisiae, UniProt Q05776 1-175, ΔLid (lacking residues 62–71)); assay: as above
T3 construct: Ups1, Saccharomyces cerevisiae, full length (175 amino acids) less residues 62-71; source: E. coli SHuffle T7, coexpressed with Mdm35, purified (Ni-NTA, Superdex 200)
T3 sequence (looked up): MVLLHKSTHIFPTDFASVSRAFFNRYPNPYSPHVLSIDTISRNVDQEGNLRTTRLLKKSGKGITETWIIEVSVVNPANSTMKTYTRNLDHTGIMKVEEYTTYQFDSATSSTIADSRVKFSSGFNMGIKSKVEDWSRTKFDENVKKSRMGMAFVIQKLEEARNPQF

[4] = target: T4, full-length His6-Ups1 R25K (S. cerevisiae, UniProt Q05776 1-175, R25K); assay: as above
T4 construct: Ups1, Saccharomyces cerevisiae, full length (175 amino acids); source: E. coli SHuffle T7, coexpressed with Mdm35, purified (Ni-NTA, Superdex 200)
T4 sequence (looked up): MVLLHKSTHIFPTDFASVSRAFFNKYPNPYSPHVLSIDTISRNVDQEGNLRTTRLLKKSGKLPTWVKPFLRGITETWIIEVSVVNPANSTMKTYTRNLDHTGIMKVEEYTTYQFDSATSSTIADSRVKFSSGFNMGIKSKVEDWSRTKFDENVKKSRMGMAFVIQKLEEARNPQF

[5] = target: T5, full-length His6-Ups1 K6E/K128E (S. cerevisiae, UniProt Q05776 1-175, K6E | K128E); assay: as above
T5 construct: Ups1, Saccharomyces cerevisiae, full length (175 amino acids); source: E. coli SHuffle T7, coexpressed with Mdm35, purified (Ni-NTA, Superdex 200)
T5 sequence (looked up): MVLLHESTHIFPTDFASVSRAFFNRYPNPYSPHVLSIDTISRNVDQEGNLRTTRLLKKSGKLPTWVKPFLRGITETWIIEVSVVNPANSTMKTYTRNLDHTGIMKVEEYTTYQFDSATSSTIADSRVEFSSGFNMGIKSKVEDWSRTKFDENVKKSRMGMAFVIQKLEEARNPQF

[6] = target: T6, full-length Ups1, N-terminally His6 tagged (from the His6–Ups1–Mdm35 complex) (S. cerevisiae, UniProt Q05776 1-175); assay: as above
T6 construct: Ups1, Saccharomyces cerevisiae, full length (175 amino acids); Added to the assays as the purified complex with Mdm35; also called WT Ups1; Ups1WT; source: E. coli SHuffle T7, coexpressed with Mdm35, purified (Ni-NTA, Superdex 200); not shown: His6, N-terminal, kept
T6 sequence (looked up): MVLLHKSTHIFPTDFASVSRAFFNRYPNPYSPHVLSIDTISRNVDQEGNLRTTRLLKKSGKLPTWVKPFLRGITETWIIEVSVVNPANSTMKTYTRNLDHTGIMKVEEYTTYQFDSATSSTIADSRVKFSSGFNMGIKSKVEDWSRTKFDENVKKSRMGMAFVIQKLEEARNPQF

[7] = target: T7, full-length His6-Ups1 N24C (S. cerevisiae, UniProt Q05776 1-175, N24C); assay: cross-linking; disulfide bond between Ups1N24C and Mdm35N25C on separate chains; SDS–PAGE with or without β-mercaptoethanol, CBB staining
T7 construct: Ups1, Saccharomyces cerevisiae, full length (175 amino acids); In the pull-down with GST-Mdm35: the chain set free from Mdm35N25C by pretreatment with DTT; source: E. coli SHuffle T7, coexpressed with Mdm35N25C, purified (Ni-NTA, Superdex 200); not shown: His6, N-terminal, kept
T7 sequence (looked up): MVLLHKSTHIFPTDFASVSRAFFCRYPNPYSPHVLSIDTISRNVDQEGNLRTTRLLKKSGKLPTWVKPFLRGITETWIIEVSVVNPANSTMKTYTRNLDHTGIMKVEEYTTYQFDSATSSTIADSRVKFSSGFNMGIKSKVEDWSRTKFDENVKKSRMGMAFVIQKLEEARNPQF

[8] = target: T8, Ups1ΔC5 (Ups1 lacking the C-terminal five residues), N-terminally His6 tagged (S. cerevisiae, UniProt Q05776 1-170); assay: crystal structure; Ups1ΔC5–Mdm35ΔC5 complex without PA, 1.40 Å; sitting drop at 20 °C, 0.2 M ammonium citrate tribasic pH 7.0, 20% polyethylene glycol 3,350
T8 construct: Ups1, Saccharomyces cerevisiae; full length is 175 amino acids, this construct lacks the C-terminal five residues; No removal of the His6 tag is described; the complex with PA was purified again on Ni-NTA before crystallisation; also called His6-Ups1ΔC5; source: E. coli SHuffle T7, coexpressed with Mdm35ΔC5, purified (Ni-NTA, Superdex 200); not shown: His6, N-terminal, kept
T8 sequence (looked up): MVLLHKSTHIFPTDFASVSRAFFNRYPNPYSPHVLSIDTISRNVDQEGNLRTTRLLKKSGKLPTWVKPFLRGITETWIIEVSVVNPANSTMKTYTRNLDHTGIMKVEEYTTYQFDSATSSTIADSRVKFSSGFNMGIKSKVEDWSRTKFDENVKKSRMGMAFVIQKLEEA

binding result [1]: binds
binding result [2]: binds
binding result [3]: binds
binding result [4]: binds
binding result [5]: binds
binding result [6]: binds
B1: full-length Mdm35 (from the His6–Ups1–Mdm35 complex) (natural protein, S. cerevisiae, UniProt O60200 1-86, looked up)
chain: MGNIMSASFAPECTDLKTKYDSCFNEWYSEKFLKGKSVENECSKQWYAYTTCVNAALVKQGIKPALDEAREEAPFENGGKLKEVDK
notes: Mdm35, Saccharomyces cerevisiae, full length (86 residues); The coexpression plasmid encodes GST-Mdm35; also called Mdm35WT; source: E. coli SHuffle T7, coexpressed with His6-Ups1, purified (Ni-NTA, Superdex 200)

binding result [7]: binds
B2: full-length Mdm35 N25C (natural protein, S. cerevisiae, UniProt O60200 1-86, looked up)
chain: MGNIMSASFAPECTDLKTKYDSCFCEWYSEKFLKGKSVENECSKQWYAYTTCVNAALVKQGIKPALDEAREEAPFENGGKLKEVDK
notes: Mdm35, Saccharomyces cerevisiae, full length (86 residues); The coexpression plasmid encodes GST-Mdm35; removal of GST is not described; source: E. coli SHuffle T7, coexpressed with His6-Ups1N24C, purified (Ni-NTA, Superdex 200)

binding result [8]: binds
B3: Mdm35ΔC5 (Mdm35 lacking the C-terminal five residues) (domain or fragment, S. cerevisiae, UniProt O60200 1-81, looked up)
chain: MGNIMSASFAPECTDLKTKYDSCFNEWYSEKFLKGKSVENECSKQWYAYTTCVNAALVKQGIKPALDEAREEAPFENGGKL
notes: Mdm35, Saccharomyces cerevisiae; full length is 86 residues, this construct lacks the C-terminal five residues; The coexpression plasmid encodes GST-Mdm35ΔC5; the stated 31 kDa of the heterodimer implies that GST was no longer on the chain, but its removal from the complex is not described; For Mdm35 crystallised alone (4YTV) GST was cleaved with PreScission protease; Disulfides Cys13–Cys52 and …
